Experiment [1] concerns the target T1, transferrin (UniProt P02787 20-698).
T1 construct: transferrin (serotransferrin), the iron transporter of serum; probably the mature plasma protein; also called Tf; WT-Tf
As to the kind of experiment: SPR; BIAcore 2000; transferrin coupled at a CM5 sensor chip, CD14 flowed over; details in the Supplementary Materials (not shown). Particulars: both partners purified.

Experiment [2] concerns the target T1, transferrin. As to the kind of experiment: not stated; direct binding of TC6 (Fig. S9C to E); method not given.

T1 sequence (P02787 20-698): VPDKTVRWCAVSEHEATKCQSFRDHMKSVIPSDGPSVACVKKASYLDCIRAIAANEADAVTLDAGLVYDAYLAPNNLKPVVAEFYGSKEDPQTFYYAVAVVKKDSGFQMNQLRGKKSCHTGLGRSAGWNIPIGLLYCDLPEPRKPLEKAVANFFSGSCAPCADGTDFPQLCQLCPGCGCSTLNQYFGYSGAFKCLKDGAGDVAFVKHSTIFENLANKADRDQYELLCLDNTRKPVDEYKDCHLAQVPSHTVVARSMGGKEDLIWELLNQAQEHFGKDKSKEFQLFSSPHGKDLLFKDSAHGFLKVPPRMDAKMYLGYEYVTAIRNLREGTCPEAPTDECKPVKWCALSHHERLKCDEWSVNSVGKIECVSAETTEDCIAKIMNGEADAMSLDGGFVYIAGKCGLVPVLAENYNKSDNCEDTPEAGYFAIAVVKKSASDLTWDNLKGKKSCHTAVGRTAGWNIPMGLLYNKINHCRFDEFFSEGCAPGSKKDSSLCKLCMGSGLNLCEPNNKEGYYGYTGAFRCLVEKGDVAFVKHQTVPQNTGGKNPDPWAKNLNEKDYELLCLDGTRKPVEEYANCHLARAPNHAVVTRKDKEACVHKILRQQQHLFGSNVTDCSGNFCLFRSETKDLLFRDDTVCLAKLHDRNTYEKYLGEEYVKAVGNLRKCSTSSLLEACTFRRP

B1: cluster of differentiation 14 (CD14) (receptor, UniProt P08571 20-345, looked up)
chain: TTPEPCELDDEDFRCVCNFSEPQPDWSEAFQCVSAVEVEIHAGGLNLEPFLKRVDADADPRQYADTVKALRVRRLTVGAAQVPAQLLVGALRVLAYSRLKELTLEDLKITGTMPPLPLEATGLALSSLRLRNVSWATGRSWLAELQQWLKPGLKVLSIAQAHSPAFSCEQVRAFPALTSLDLSDNPGLGERGLMAALCPHKFPAIQNLALRNTGMETPTGVCAALAAAGVQPHSLDLSHNSLRATVNPSAPRCMWSSALNSLNLSFAGLEQVPKGLPAKLRVLDLSCNRLNRAPQPDELPEVDNLTLDGNPFLVPGTALPHEGSMN
notes: CD14, TLR coreceptor; isolated protein used in SPR and native gel; Probably a soluble recombinant CD14; also called WT-CD14; wild-type CD14
As to B1, in experiment [1], the Kd is 14 nM, the koff was 0.00033 s⁻¹ and the kon was found to be 24000 M⁻¹ s⁻¹.

B2: peptide TC6 (peptide)
peptide: TTPEPC
notes: designed peptide TC6; also called interference peptide TC6
Regarding B2, in experiment [2], the Kd worked out at 13 nM.

The record behind these values is article PMC10809841, “Transferrin Is Up-Regulated by Microbes and Acts as a Negative Regulator of Immunity to Induce Intestinal Immunotolerance” (Research, 2024).
